Results taken from patent US20090099072A1 (LES LABORATOIRES SERVIER, published 2009).

Legend:
Bcl-W = molecular target: T1, Bcl-W (UniProt Q92843-1 1-172, limits assumed); experiment: fluorescence polarisation competition; tracer Bak BH3 carboxyfluorescein 15 nM, Bcl-W 1 µM
T1 construct: also called anti-apoptotic member of the Bcl-2 protein family
T1 sequence (looked up): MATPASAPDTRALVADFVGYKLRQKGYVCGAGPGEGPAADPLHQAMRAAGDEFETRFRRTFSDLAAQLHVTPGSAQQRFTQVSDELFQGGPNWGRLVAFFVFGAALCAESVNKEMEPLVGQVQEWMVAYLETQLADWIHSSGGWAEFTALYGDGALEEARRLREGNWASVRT
Experimental: (§1) The following reagents are mixed together in the order stated: [0089] a) competitor peptide at a final concentration of from 1 nM to 100 μM; [0090] b) fluorescent peptide ligand (Bak BH3 carboxyfluorescein) at a final concentration of 15 nM; [0091] c) anti-apoptotic member of the Bcl-2 protein family at a final concentration of 100 nM for Bcl-XL and of 1 μM for Bcl-2 and Bcl-W.
(§2) The mixture is then incubated for 30 minutes at ambient temperature and the fluorescence polarisation is determined on a Fusion apparatus (Packard) (excitation at 485 nm and reading at 530 nm). The values are given in mP (unit of fluorescence polarisation).

Bcl-2 = molecular target: T2, Bcl-2 (UniProt P10415-1 1-211, limits assumed); experiment: fluorescence polarisation competition; tracer Bak BH3 carboxyfluorescein 15 nM, Bcl-2 1 µM
T2 construct: also called anti-apoptotic member of the Bcl-2 protein family
T2 sequence (P10415 1-211 limits assumed): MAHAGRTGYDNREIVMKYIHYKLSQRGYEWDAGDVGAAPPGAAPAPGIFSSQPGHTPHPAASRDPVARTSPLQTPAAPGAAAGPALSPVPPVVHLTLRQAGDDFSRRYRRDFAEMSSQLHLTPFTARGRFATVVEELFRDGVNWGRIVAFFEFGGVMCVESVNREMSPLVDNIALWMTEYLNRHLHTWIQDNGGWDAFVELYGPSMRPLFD
Experimental: as §1, §2

Bcl-XL = molecular target: T3, Bcl-XL (UniProt Q07817-1 1-209); experiment: fluorescence polarisation competition; tracer Bak BH3 carboxyfluorescein 15 nM, Bcl-XL 100 nM
T3 construct: also called anti-apoptotic member of the Bcl-2 protein family
T3 sequence (Q07817 1-209): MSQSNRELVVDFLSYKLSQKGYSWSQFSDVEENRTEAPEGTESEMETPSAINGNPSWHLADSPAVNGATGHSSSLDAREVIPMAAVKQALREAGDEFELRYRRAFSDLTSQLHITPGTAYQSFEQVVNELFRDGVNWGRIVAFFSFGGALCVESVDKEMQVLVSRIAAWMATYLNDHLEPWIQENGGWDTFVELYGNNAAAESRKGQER
Experimental: as §1, §2

- Ki (Bcl-W): 7400 nM
- Ki (Bcl-2): 1800 nM
- Ki (Bcl-XL): 1150 nM
Binder: GTMENLSRRLKVTGDLFDIMSGQTDV [Beclin peptide, motif GTMENLSRRLKVTGDLFDIMSGQTDV of the Beclin protein]
